The subject of the data set is human apolipoprotein E4.

Chain of human apolipoprotein E4 (chain, as listed by the source): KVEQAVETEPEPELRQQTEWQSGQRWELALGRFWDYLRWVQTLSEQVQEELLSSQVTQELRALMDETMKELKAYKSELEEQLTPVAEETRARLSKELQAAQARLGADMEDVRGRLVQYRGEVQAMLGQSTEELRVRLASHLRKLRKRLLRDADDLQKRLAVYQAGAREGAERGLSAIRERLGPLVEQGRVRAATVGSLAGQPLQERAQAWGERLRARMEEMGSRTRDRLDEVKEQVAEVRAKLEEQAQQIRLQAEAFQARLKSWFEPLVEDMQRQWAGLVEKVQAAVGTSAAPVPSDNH

On to “PCSK1 (Protein Convertase, Subtilisin/Kexin-Type-1), overexpressed by transient transfection”, for which the “apoE fragmentation in NSE-apoE4 primary neurons overexpressing the enzyme” value was “A mild increase of apoE fragmentation was also detected in NSE-apoE4 primary neurons overexpressing PCSK1 or PCSK2”.

For the substance “PCSK2 (Protein Convertase, Subtilisin/Kexin-Type-2), overexpressed by transient transfection”, the “apoE fragmentation in NSE-apoE4 primary neurons overexpressing the enzyme” value was “A mild increase of apoE fragmentation was also detected in NSE-apoE4 primary neurons overexpressing PCSK1 or PCSK2”.
